In patent US20240327530A1 (ICHNOS SCIENCES, published 2024):

Experiments:
[1] = molecular target: T1, Mouse IL-1RAP, membrane-bound on NIH-3T3 cells (mouse, UniProt Q61730 21-570); experiment: flow cytometry on NIH-3T3 cells, PE-Cyanine7 secondary antibody, relative mean fluorescence intensity (isotype subtracted); lower of two curves
T1 construct: Endogenous protein on cells
T1 sequence (looked up): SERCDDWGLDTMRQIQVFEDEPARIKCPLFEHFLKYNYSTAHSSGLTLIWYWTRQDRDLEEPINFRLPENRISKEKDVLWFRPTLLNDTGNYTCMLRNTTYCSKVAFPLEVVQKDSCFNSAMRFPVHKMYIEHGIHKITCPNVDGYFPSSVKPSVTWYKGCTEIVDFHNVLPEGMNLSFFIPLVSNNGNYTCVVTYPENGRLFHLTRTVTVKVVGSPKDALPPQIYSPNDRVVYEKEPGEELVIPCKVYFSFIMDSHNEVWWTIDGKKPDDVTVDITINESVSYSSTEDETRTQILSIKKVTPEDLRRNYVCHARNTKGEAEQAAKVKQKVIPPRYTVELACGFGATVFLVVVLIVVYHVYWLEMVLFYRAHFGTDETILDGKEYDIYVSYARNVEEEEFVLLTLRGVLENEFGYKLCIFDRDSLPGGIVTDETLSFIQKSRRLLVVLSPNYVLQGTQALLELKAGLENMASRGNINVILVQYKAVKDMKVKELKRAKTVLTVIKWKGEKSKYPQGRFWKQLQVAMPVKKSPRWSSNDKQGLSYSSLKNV
Protocol: (§1) In brief, cells were harvested, counted, and plated at 50′000 cells/well in a 96-well round-bottom plate. The plate was centrifuged at 350 g for 3 minutes and the cells were resuspended in […] of FACS® buffer (PBS (1×)+2.5% FCS+2 mM EDTA+0.05% NaN₃) containing various concentrations (ranging from 20 to 0.0001 μg/ml) of either anti-mouse IL-1RAP_candidate_1 or Isotype control_2 antibodies. Stained cells were incubated for 30 minutes at 4° C., washed twice with FACS® buffer at 350 g for 3 min and resuspended in 100 μl of a monoclonal anti-mouse IgG PE-Cyanine7 secondary antibody (Biolegend, 407114) diluted 1/200 in FACS® buffer. Cells were then washed twice, and resuspended in 200 μl of FACS® buffer containing SYTOX® Green dead cell stain (THERMO FISHER […]®, S34860) and samples were acquired on a CYTOFLEX® instruments (Beckman Coulter). The cells were gated based on size on FSC vs SSC and analysed for PE-Cyanine7-geometric mean (geomean) fluorescence intensity using FLOWJO® software. Finally, relative geomean fluorescence intensity was calculated by subtracting fluorescence of anti-mouse IL-1RAP_candidate_1 per fluorescence of Isotype control_2. As depicted in FIG. 11, anti-mouse IL-1RAP_candidate_1 antibody recognizes membrane-bound IL-1RAP expressed on NIH-3T3 cell line. […] Each data point is a measurement for a given cell line. […]

[2] = molecular target: T2, Recombinant cynomolgus monkey IL-1RAP-ECD(S21-E359)-avi-his protein (cynomolgus monkey, UniProt P59822 21-359 (rhesus entry)); experiment: SPR
T2 construct: also called cyno IL-1RAP-ECD-Avi-His; recombinant cynomolgus monkey IL-1RAP-avi-his protein
T2 sequence: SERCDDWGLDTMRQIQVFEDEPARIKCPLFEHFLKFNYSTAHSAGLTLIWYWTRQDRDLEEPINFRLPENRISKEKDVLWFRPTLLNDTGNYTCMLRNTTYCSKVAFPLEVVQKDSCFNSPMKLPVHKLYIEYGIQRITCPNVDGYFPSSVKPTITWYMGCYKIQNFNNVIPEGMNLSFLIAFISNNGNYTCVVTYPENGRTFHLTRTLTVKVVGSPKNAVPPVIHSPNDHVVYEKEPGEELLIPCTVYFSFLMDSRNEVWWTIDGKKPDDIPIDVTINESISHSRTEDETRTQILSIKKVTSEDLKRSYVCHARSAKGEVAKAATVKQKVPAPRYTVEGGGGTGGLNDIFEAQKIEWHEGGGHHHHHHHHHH

[3] = molecular target: T1, Mouse IL-1RAP, membrane-bound on …; experiment: flow cytometry on NIH-3T3 cells, nonlinear sigmoidal regression
Protocol: as §1

B1: Anti-IL-1RAP-C3-A3 mmIgG2a LALA (antibody, V domains shown)
VH: EVQLLESGGGLVQPGGSLRLSCAASGFIFSHYGMSWVRQAPGKGLEWVSAISYDGEGTLYADSVKGRFTISRDNSKNTLYLQMNSLRAEDTAVYYCARFRYYTAFDYWGQGTLVTVSS
VL: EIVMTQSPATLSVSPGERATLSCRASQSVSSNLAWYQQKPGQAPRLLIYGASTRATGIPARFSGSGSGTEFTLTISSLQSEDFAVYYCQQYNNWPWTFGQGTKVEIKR
notes: also called anti-IL-1RAP-C3-A3 mouse IgG2a LALA
Q: For B1, which “EC50 (read off the curve)” value [1] is on record?
A: ~0.3 µg/mL

Q: Does B1 bind [2]?
A: no binding

Q: And the Kd [3]?
A: 1.15 nM
